T1: recombinant cyno IL1RAP ECD (cynomolgus monkey, UniProt P59822 21-367 (rhesus entry))
T1 construct: also called rcynoIL1RAP
T1 sequence: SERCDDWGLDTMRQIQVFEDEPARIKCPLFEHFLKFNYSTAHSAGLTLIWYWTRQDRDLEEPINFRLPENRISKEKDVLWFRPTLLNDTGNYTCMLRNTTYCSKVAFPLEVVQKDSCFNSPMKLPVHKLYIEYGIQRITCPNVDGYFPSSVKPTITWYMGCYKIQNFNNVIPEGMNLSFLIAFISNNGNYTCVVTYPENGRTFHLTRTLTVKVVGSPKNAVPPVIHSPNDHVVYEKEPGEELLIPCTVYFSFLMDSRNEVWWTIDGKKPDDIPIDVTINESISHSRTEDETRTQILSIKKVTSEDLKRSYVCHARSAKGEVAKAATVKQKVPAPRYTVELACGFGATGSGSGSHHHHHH

T2: recombinant human IL1RAP ECD (human, UniProt Q9NPH3 21-367)
T2 construct: His-tagged; also called hIL1RAP-ECD; rhuIL1RAP
T2 sequence: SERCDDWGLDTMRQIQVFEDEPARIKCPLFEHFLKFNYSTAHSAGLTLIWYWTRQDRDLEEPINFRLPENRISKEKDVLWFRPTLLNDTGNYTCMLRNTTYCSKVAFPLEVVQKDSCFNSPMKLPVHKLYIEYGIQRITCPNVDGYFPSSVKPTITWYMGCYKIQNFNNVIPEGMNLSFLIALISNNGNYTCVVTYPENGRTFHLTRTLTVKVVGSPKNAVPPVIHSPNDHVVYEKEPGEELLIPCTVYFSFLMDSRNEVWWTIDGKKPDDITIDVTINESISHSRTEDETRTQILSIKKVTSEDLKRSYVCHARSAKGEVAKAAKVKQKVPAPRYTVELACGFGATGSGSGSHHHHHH

T3: human IL1RAP on cells (endogenous) (human, UniProt Q9NPH3 21-570)
T3 sequence (looked up): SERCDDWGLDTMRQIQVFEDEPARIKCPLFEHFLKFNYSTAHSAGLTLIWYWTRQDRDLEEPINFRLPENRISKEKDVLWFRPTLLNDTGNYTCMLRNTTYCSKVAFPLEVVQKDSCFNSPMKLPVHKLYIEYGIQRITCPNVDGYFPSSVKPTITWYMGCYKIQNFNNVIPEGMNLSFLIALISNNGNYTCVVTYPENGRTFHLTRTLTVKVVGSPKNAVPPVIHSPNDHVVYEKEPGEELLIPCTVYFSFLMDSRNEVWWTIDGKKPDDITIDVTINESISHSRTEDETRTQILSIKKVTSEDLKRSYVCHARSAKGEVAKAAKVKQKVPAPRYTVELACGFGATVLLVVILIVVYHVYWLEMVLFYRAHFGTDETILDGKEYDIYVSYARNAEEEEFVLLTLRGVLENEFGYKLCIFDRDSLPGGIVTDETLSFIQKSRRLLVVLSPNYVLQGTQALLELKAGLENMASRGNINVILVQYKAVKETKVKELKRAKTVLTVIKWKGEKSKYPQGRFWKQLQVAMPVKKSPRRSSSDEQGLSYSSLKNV

B1: IC3B1 (bispecific antibody, human IgG4 S228P, kappa, lambda, F234A L235A)
heavy 1: EVQLVESGGGLVQPGGSLKLSCAASGFTFNTYAMNWVRQASGKGLEWVGRIRSKYNAYATYYAASVKGRFTISRDDSKNTAYLQMNSLKTEDTAVYYCTRHGNFGNSYVSWFAYWGQGTLVTVSSASTKGPSVFPLAPCSRSTSESTAALGCLVKDYFPEPVTVSWNSGALTSGVHTFPAVLQSSGLYSLSSVVTVPSSSLGTKTYTCNVDHKPSNTKVDKRVESKYGPPCPPCPAPEAAGGPSVFLFPPKPKDTLMISRTPEVTCVVVDVSQEDPEVQFNWYVDGVEVHNAKTKPREEQFNSTYRVVSVLTVLHQDWLNGKEYKCKVSNKGLPSSIEKTISKAKGQPREPQVYTLPPSQEEMTKNQVSLTCLVKGFYPSDIAVEWESNGQPENNYKTTPPVLDSDGSFLLYSKLTVDKSRWQEGNVFSCSVMHEALHNHYTQKSLSLSLGK
light 1: QAVVTQEPSLTVSPGGTVTLTCRSSTGAVTTSNYANWVQQKPGQAPRGLIGGTNKRAPGTPARFSGSLLGGKAALTLSGAQPEDEAEYYCALWYSNLWVFGGGTKLTVLGQPKAAPSVTLFPPSSEELQANKATLVCLISDFYPGAVTVAWKADSSPVKAGVETTTPSKQSNNKYAASSYLSLTPEQWKSHRSYSCQVTHEGSTVEKTVAPTECS
heavy 2: not shown
light 2: EIVLTQSPGTLSLSPGERATLSCRASQSISNDLNWYQQKPGKAPKLLIYYASSLQSGVPSRFSGSGSGTDFTLTINSLQPEDFATYYCQQSFTAPLTFGQGTKVEIKRTVAAPSVFIFPPSDEQLKSGTASVVCLLNNFYPREAKVQWKVDNALQSGNSQESVTEQDSKDSTYSLSSTLTLSKADYEKHKVYACEVTHQGLSSPVTKSFNRGEC
notes: IgG4-PAA, Fab arm exchange; also called IAPB47 x CD3B220
B2: IC3B4 (bispecific antibody, human IgG4 S228P, kappa, lambda, F234A L235A)
heavy 1: EVQLVESGGGLVQPGGSLKLSCAASGFTFNTYAMNWVRQASGKGLEWVGRIRSKYNAYATYYAASVKGRFTISRDDSKNTAYLQMNSLKTEDTAVYYCTRHGNFGNSYVSWFAYWGQGTLVTVSSASTKGPSVFPLAPCSRSTSESTAALGCLVKDYFPEPVTVSWNSGALTSGVHTFPAVLQSSGLYSLSSVVTVPSSSLGTKTYTCNVDHKPSNTKVDKRVESKYGPPCPPCPAPEAAGGPSVFLFPPKPKDTLMISRTPEVTCVVVDVSQEDPEVQFNWYVDGVEVHNAKTKPREEQFNSTYRVVSVLTVLHQDWLNGKEYKCKVSNKGLPSSIEKTISKAKGQPREPQVYTLPPSQEEMTKNQVSLTCLVKGFYPSDIAVEWESNGQPENNYKTTPPVLDSDGSFLLYSKLTVDKSRWQEGNVFSCSVMHEALHNHYTQKSLSLSLGK
light 1: QAVVTQEPSLTVSPGGTVTLTCRSSTGAVTTSNYANWVQQKPGQAPRGLIGGTNKRAPGTPARFSGSLLGGKAALTLSGAQPEDEAEYYCALWYSNLWVFGGGTKLTVLGQPKAAPSVTLFPPSSEELQANKATLVCLISDFYPGAVTVAWKADSSPVKAGVETTTPSKQSNNKYAASSYLSLTPEQWKSHRSYSCQVTHEGSTVEKTVAPTECS
heavy 2: not shown
light 2: not shown
notes: IgG4-PAA, Fab arm exchange; also called IAPB61 x CD3B220
B3: IC3B9 (bispecific antibody, human IgG4 S228P, kappa, lambda, F234A L235A)
heavy 1: EVQLVESGGGLVQPGGSLKLSCAASGFTFNTYAMNWVRQASGKGLEWVGRIRSKYNAYATYYAASVKGRFTISRDDSKNTAYLQMNSLKTEDTAVYYCTRHGNFGNSYVSWFAYWGQGTLVTVSSASTKGPSVFPLAPCSRSTSESTAALGCLVKDYFPEPVTVSWNSGALTSGVHTFPAVLQSSGLYSLSSVVTVPSSSLGTKTYTCNVDHKPSNTKVDKRVESKYGPPCPPCPAPEAAGGPSVFLFPPKPKDTLMISRTPEVTCVVVDVSQEDPEVQFNWYVDGVEVHNAKTKPREEQFNSTYRVVSVLTVLHQDWLNGKEYKCKVSNKGLPSSIEKTISKAKGQPREPQVYTLPPSQEEMTKNQVSLTCLVKGFYPSDIAVEWESNGQPENNYKTTPPVLDSDGSFLLYSKLTVDKSRWQEGNVFSCSVMHEALHNHYTQKSLSLSLGK
light 1: QAVVTQEPSLTVSPGGTVTLTCRSSTGAVTTSNYANWVQQKPGQAPRGLIGGTNKRAPGTPARFSGSLLGGKAALTLSGAQPEDEAEYYCALWYSNLWVFGGGTKLTVLGQPKAAPSVTLFPPSSEELQANKATLVCLISDFYPGAVTVAWKADSSPVKAGVETTTPSKQSNNKYAASSYLSLTPEQWKSHRSYSCQVTHEGSTVEKTVAPTECS
heavy 2: not shown
light 2: not shown
notes: IgG4-PAA, Fab arm exchange; also called IAPB25 x CD3B220
B4: IAPB57, 5G08 (hybridoma mAb, unpurified) (antibody, V domains shown)
VH: QLQLQESGPGLVKPSETLSLTCTVSGGSISSSTYYWGWIRQPPGKGLEWIGSIYFTGSTDYNPSLKSRVSISVDTSKNQFSLKLSSVTAADTAVYYCAKEDDSSGYYSFDYWGQGNLVTVSS
VL: DIQLTQSPSFLSASVGDRVTITCRASQGISSYLAWYQQKPGKAPKLLIYAASTLQSGVPSRFSGSGSGTEFTLTISSLQPEDFATYYCQQVNSYPLTFGGGTKVEIK
notes: OmniRat hybridoma product (rat constant region)
B5: IAPB55, 22A09 (hybridoma mAb, unpurified) (antibody, V domains shown)
VH: QLQLQESGPGLVKPSETLSLTCTVSGVSISSSTYYWGWLRQPPGMGLEWTGSIYFTGNTYYNPSLKSRVTISVDTSRNQFSLKLSSVTAADTAVYYCGSLFGDYGYFDYWGQGTLVTVSS
VL: EIVMTQSPATLSVSPGERATLSCRASQFISSNLAWYQQKPGQAPRLLIYGASTRATGIPARFSGSGSGTDFTLTISSLQSEDFAVYYCQQYNNWPFTFGPGTKVDIK
notes: as for B4
B6: IAPB61, 25D12 (hybridoma mAb, unpurified) (antibody, V domains shown)
VH: QLQLQESGPGLVKPSETLSLTCTVSGVSISSSTYYWGWLRQPPGMGLEWTGSIYFTGNTYYNPSLKSRVTISVDTSRNQFSLKLSSVTAADTAVYYCGSLFGDYGYFDYWGQGTLVTVSS
VL: EIVMTQSPATLSVPPGERATLSCRASQFISSNLAWYQQKPGQAPRLLIYGASTRATGIPARFSGSGSGTDFTLTISSLQSEDFAVYYCQQYNNWPSTFGPGTKVDIK
notes: as for B4

How the values were obtained:
[1] = biological target: T1, recombinant cyno IL1RAP ECD; experiment: SPR
[2] = biological target: T2, recombinant human IL1RAP ECD; experiment: SPR
[3] = biological target: T1, recombinant cyno IL1RAP ECD; experiment: SPR; remark: listed apart in the source
[4] = biological target: T3, human IL1RAP on cells (endogenous); experiment: cell-based or functional assay
[5] = biological target: T1, recombinant cyno IL1RAP ECD; experiment: SPR, summary
[6] = biological target: T2, recombinant human IL1RAP ECD; experiment: SPR, summary
[7] = biological target: T2, recombinant human IL1RAP ECD; experiment: SPR; remark: listed apart in the source
[8] = biological target: T2, recombinant human IL1RAP ECD; experiment: SPR; human KD over cyno KD
[9] = biological target: T2, recombinant human IL1RAP ECD; experiment: SPR (ProteOn)
Experimental: The rates of IL1RAP ECD association and dissociation were measured for each variant. The biosensor surface was prepared by covalently coupling Goat anti-Human IgG (Fc) to the surface of a GLC chip (BioRad) using the manufacturer instructions for amine-coupling chemistry. […] The RU immobilized also included a goat anti-mouse Fc antibody that was added to capture other antibodies not included in the ones reported here. Since the mixture was 1:1 about 50% of these RU immobilized are expected to be goat anti-human Fc. The kinetic experiments were performed at 25° C. in running buffer (PBS pH 7.4, 0.005% P20, 3 mM EDTA). […] (1:3) serial dilutions of human IL1RAP ECD, starting at 400 nM were prepared in running buffer. […] The reference spots (Goat anti-Human IgG (Fc)-modified surface) containing no candidate captured were used as a reference surface. Capture of mAb was followed by a 3 minute injection (association phase) of antigen at 40 μL/min, followed by 10 minutes of buffer flow (dissociation phase). […] Data was processed on the instrument software. Double reference subtraction of the data was performed by subtracting the curves generated by buffer injection from the reference-subtracted curves for analyte injections. Kinetic analysis of the data was performed using 1:1 Langmuir binding model with group fit.

Binder | Kd [1] [nM] | Kd [2] [nM] | Kd [3] [nM] | koff [3] [s⁻¹] | kon [3] [M⁻¹ s⁻¹] | EC50, T-cell mediated cytotoxicity [4] [nM] | Kd [5] [nM] | Kd [6] [nM] | Kd [7] [nM] | koff [7] [s⁻¹] | kon [7] [M⁻¹ s⁻¹] | Hu/Cyno KD Ratio [8] | Kd [9] [nM] | koff [9] [s⁻¹] | kon [9] [M⁻¹ s⁻¹]
B1 | 0.212 | 1.09 | 0.212 | 0.000236 | 1.11e+06 | 0.049 | 0.212 | 1.09 | 1.09 | 0.000759 | 697000 | 5.1 |  |  | 
B2 | 10.2 | 11.2 | 10.2 | 0.0148 | 1.46e+06 |  | 10.2 | 11.2 | 11.2 | 0.0129 | 1.15e+06 | 1.1 |  |  | 
B3 | 27.8 | 29.7 | 27.8 | 0.053 | 1.91e+06 |  | 27.8 | 29.7 | 29.7 | 0.0547 | 1.84e+06 | 1.1 |  |  | 
B4 |  |  |  |  |  |  |  |  |  |  |  |  | 0.16 | 0.000129 | 807000
B5 |  |  |  |  |  |  |  |  |  |  |  |  | 1.64 | 0.000747 | 454000
B6 |  |  |  |  |  |  |  |  |  |  |  |  | 17.5 | 0.0142 | 810000
